Assay results as given in patent US20060172374A1 (Novartis, published 2006).

Legend:
[1] = biological target: T1, HA-NDR1 T74A (human, UniProt Q15208 1-465); test: co-immunoprecipitation of myc-hMOB1 with HA-NDR, OA-treated COS-1 cells
T1 construct: pCMV5_HA-NDR1 mutant expressed in COS-1 cells; also called T74A mutant

[2] = biological target: T2, HA-NDR N-terminal point mutant, tyrosine 31 to alanine (human, UniProt Q15208 1-465); test: co-immunoprecipitation of myc-hMOB1 with HA-NDR point mutants, OA-treated COS1 cells
T2 construct: also called tyrosine 31 mutant

[3] = biological target: T3, HA-NDR N-terminal point mutant, arginine 41 to alanine (human, UniProt Q15208 1-465); test: as above
T3 construct: also called arginine 41 mutant

[4] = biological target: T4, HA-NDR N-terminal point mutant, arginine 78 to alanine (human, UniProt Q15208 1-465); test: as above
T4 construct: also called arginine 78 mutant

[5] = biological target: T5, HA-tagged NDR1 wild type (human, UniProt Q15208 1-465); test: co-immunoprecipitation, summary of Example 8
T5 construct: also called HA-NDR1; HA-NDR
T5 sequence (Q15208 whole entry): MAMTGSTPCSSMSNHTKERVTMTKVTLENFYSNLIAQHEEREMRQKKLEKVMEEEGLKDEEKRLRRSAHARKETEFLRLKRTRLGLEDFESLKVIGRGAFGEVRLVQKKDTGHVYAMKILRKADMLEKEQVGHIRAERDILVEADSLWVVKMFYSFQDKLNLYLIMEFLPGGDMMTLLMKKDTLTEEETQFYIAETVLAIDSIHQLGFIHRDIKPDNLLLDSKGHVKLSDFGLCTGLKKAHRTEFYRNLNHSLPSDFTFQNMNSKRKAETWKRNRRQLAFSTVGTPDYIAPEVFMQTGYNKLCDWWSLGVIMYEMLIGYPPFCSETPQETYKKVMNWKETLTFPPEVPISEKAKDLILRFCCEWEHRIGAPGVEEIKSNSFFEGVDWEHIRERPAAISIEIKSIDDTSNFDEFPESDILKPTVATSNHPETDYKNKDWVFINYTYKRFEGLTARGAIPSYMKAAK

T4 sequence (Q15208 other isoform, or with tags, fused parts or gaps mutant limits assumed): as the sequence (Q15208 whole entry) above, with R78A counted along it
T1 sequence (Q15208 whole entry T74A): as the sequence (Q15208 whole entry) above, with T74A counted along it
T3 sequence (Q15208 other isoform, or with tags, fused parts or gaps mutant limits assumed): as the sequence (Q15208 whole entry) above, with R41A counted along it
T2 sequence (Q15208 other isoform, or with tags, fused parts or gaps mutant limits assumed): as the sequence (Q15208 whole entry) above, with Y31A counted along it

B1: myc-tagged hMOB1 (other, not shown: small tags and cut ends)
chain: MSFLFSSRSSKTFKPKKNIPEGSHQYELLKHAEATLGSGNLRQAVMLPEGEDLNEWIAVNTVDFFNQINMLYGTITEFCTEASCPVMSAGPRYEYHWADGTNIKKPIKCSAPKYIDYLMTWVQDQLDDETLFPSKIGVPFPKNFMSVAKTILKRLFRVYAHIYHQHFDSVMQLQEEAHLNTSFKHFIFFVQEFNLIDRRELAPLQELIEKLGSKDR
modifications: okadaic acid induced modification of MOB1 (not identified) in cells treated with okadaic acid
notes: also called myc-hMOB1; myc-mob1
B1: no binding [1]; no binding [2]; no binding [3]. B1: no binding [4]; binds [5].
